Several values for one entry are separate records, joined by “and”; a condition that tells them apart may be missing. Equal values may be shown once.

Usually stoichiometry N stands for a count of units in the complex or per binding partner.

Assay [1] concerns the target human serum amyloid A 1.1 (hSAA1.1), without the N-terminal methionine (human) (UniProt P0DJI8). Kind of assay: SEC; as a1, protein refolded at 75 µM; self-association. (In general: In gel filtration, larger molecules generally elute earlier.)
The target is the same in assay [2]. The assay can be described thus: SEC; as a1, protein refolded at 8.5 µM; self-association.
The target is the same in assay [3]. The assay can be described thus: SEC; Superdex 200 10/300 GL, 4°C, protein refolded at 20 µM, ~30 µL loaded, column in TBS (20 mM Tris/200 mM NaCl, pH 8.3), 0.5 mL/min; sizes from MW standards, globular shape assumed; self-association.
Assay [4] has as its target human serum amyloid A 1.1 with the N-terminal methionine (MetSAA1.1) (human) (UniProt P0DJI8). Kind of assay: SEC; as a1, protein refolded at 75 µM; self-association.
The target is the same in assay [5]. Kind of assay: SEC; as a1, protein refolded at 8.5 µM; self-association.
Assay [6] has the same target. The assay can be described thus: SEC; Superdex 200 10/300 GL, 4°C, protein refolded at 20 µM, ~30 µL loaded, column in TBS (20 mM Tris/200 mM NaCl, pH 8.3), 0.5 mL/min; sizes from MW standards, globular shape assumed; self-association.
Assay [7] shares this target. The assay can be described thus: SEC; "cross-purified" proteins (MetSAA1.1 also passed through Histrap Ni-NTA; hSAA1.1 also purified by cation and anion exchange), compared with "regular" proteins, refolded at 20 µM, 4°C; self-association.

Turning to “human serum amyloid A 1.1 (hSAA1.1), without the N-terminal methionine (from UniProt P0DJI8 19-122) (natural protein)”, the stoichiometry N is 8 and 6 in assay [1]; 4 and 8 in assay [2]; 8 and 6 in assay [3].

As for “human serum amyloid A 1.1 with the N-terminal methionine (MetSAA1.1) (from UniProt P0DJI8 19-122) (natural protein)”, the stoichiometry N is 4 and 8 in assay [4]; 8 and 4 in assay [5]; 4 and 8 in assay [6]; 4 in assay [7].

(Values after paper PMC3672174.)
